Assay results taken from PMC9352680, “A comprehensive thermodynamic model for RNA binding by the Saccharomyces cerevisiae Pumilio protein PUF4”.

T1: PUF4 RNA-binding domain (Saccharomyces cerevisiae, UniProt P25339 537-888)
T1 sequence: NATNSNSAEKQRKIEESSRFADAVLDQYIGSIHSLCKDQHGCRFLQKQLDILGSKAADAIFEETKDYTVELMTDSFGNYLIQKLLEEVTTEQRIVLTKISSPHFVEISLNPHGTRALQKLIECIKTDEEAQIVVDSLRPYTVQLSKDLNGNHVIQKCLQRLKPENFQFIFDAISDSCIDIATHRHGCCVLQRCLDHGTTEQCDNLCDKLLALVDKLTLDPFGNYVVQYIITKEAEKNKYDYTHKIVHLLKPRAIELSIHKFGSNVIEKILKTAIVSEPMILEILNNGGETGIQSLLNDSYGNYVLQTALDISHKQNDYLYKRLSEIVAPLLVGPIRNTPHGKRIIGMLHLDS


Target: T1, PUF4 RNA-binding domain
Assay: Mg; RNA-MaP; 20 mM Na-HEPES pH 7.4, 30 mM KOAc, 0.75 mM MgCl2, 0.1% Tween-20, 5% glycerol, 0.1 mg/mL BSA, 2 mM DTT; 25 C; 0.0125-409.6 nM protein
Conditions: tags: N-His6-TEV cleaved; C-SNAP kept, Cy3B-labelled; label: tethered on chip by stalled RNA polymerase

Binder	Kd
UCUCUUUGUAUAUCCUCUCUU (ssRNA) [Ib_S1_P4E.1_K4.1_C4.1_H4.1_A4.1_F4.1_[T8C]_[A9C]_T4.1]	18.9 nM
UCUCUUUGUAUAUGCUCUCUU (ssRNA) [Ib_S1_P4E.1_K4.1_C4.1_H4.1_A4.1_F4.1_[T8G]_[A9C]_T4.1]	26.8 nM
UCUCUUUGUAUAUCGUCUCUU (ssRNA) [Ib_S1_P4E.1_K4.1_C4.1_H4.1_A4.1_F4.1_[T8C]_[A9G]_T4.1]	26.1 nM
Ic_S2_P4E.1_K4.1_C4.1_H4.1_A4.1_[A6G]_[T7C]_F4.1_[T8A]_[A9G]_T4.1 (ssRNA) RNA: UUUGAUUAAUAUGAUAUCGUUCUUUCUUGUAUGCAGUUCUUUCUCGAUAUCAUAUUAAUCUUU	1090 nM
Ic_S2_P4E.1_K4.1_C4.1_H4.1_A4.1_[A6T]_[T7C]_F4.1_[T8G]_[A9T]_T4.1 (ssRNA) RNA: UUUGAUUAAUAUGAUAUCGUUCUUUCUUGUAUUCGUUUCUUUCUCGAUAUCAUAUUAAUCUUU	112 nM
Ic_S2_P4E.1_K4.1_C4.1_H4.1_A4.1_[A6C]_[T7A]_F4.1_[T8C]_[A9G]_T4.1 (ssRNA) RNA: UUUGAUUAAUAUGAUAUCGUUCUUUCUUGUAUCACGUUCUUUCUCGAUAUCAUAUUAAUCUUU	228 nM
Ic_S2_P4E.1_K4.1_C4.1_H4.1_A4.1_[A6T]_[T7G]_F4.1_[T8C]_[A9T]_T4.1 (ssRNA) RNA: UUUGAUUAAUAUGAUAUCGUUCUUUCUUGUAUUGCUUUCUUUCUCGAUAUCAUAUUAAUCUUU	536 nM
Ic_S2_P4E.1_K4.1_C4.1_H4.1_A4.1_[A6C]_F4.1_[T8C]_[A9C]_T4.1 (ssRNA) RNA: UUUGAUUAAUAUGAUAUCGUUCUUUCUUGUAUCUCCUUCUUUCUCGAUAUCAUAUUAAUCUUU	28.4 nM
Ic_S2_P4E.1_K4.1_C4.1_H4.1_A4.1_[A6C]_[T7A]_F4.1_[A9T]_T4.1 (ssRNA) RNA: UUUGAUUAAUAUGAUAUCGUUCUUUCUUGUAUCAUUUUCUUUCUCGAUAUCAUAUUAAUCUUU	3.46 nM
Ic_S2_P4E.1_K4.1_C4.1_H4.1_A4.1_[A6C]_F4.1_[T8C]_[A9G]_T4.1 (ssRNA) RNA: UUUGAUUAAUAUGAUAUCGUUCUUUCUUGUAUCUCGUUCUUUCUCGAUAUCAUAUUAAUCUUU	23.6 nM
Ic_S2_P4E.1_K4.1_C4.1_H4.1_A4.1_[A6T]_[T7C]_F4.1_[T8C]_[A9G]_T4.1 (ssRNA) RNA: UUUGAUUAAUAUGAUAUCGUUCUUUCUUGUAUUCCGUUCUUUCUCGAUAUCAUAUUAAUCUUU	168 nM
Ic_S2_P4E.1_K4.1_C4.1_H4.1_A4.1_[A6T]_[T7G]_F4.1_[T8G]_[A9T]_T4.1 (ssRNA) RNA: UUUGAUUAAUAUGAUAUCGUUCUUUCUUGUAUUGGUUUCUUUCUCGAUAUCAUAUUAAUCUUU	1200 nM
Ic_S2_P4E.1_K4.1_C4.1_H4.1_A4.1_[A6T]_[T7G]_F4.1_[T8C]_[A9C]_T4.1 (ssRNA) RNA: UUUGAUUAAUAUGAUAUCGUUCUUUCUUGUAUUGCCUUCUUUCUCGAUAUCAUAUUAAUCUUU	645 nM
Ic_S2_P4E.1_K4.1_C4.1_H4.1_A4.1_[A6C]_[T7C]_F4.1_[T8A]_[A9C]_T4.1 (ssRNA) RNA: UUUGAUUAAUAUGAUAUCGUUCUUUCUUGUAUCCACUUCUUUCUCGAUAUCAUAUUAAUCUUU	820 nM
Ic_S2_P4E.1_K4.1_C4.1_H4.1_A4.1_[A6C]_F4.1_[T8A]_[A9G]_T4.1 (ssRNA) RNA: UUUGAUUAAUAUGAUAUCGUUCUUUCUUGUAUCUAGUUCUUUCUCGAUAUCAUAUUAAUCUUU	32.9 nM
Ic_S2_P4E.1_K4.1_C4.1_H4.1_A4.1_[A6G]_[T7C]_F4.1_[T8A]_[A9T]_T4.1 (ssRNA) RNA: UUUGAUUAAUAUGAUAUCGUUCUUUCUUGUAUGCAUUUCUUUCUCGAUAUCAUAUUAAUCUUU	155 nM
Ic_S2_P4E.1_K4.1_C4.1_H4.1_A4.1_[A6T]_[T7G]_F4.1_[T8C]_T4.1 (ssRNA) RNA: UUUGAUUAAUAUGAUAUCGUUCUUUCUUGUAUUGCAUUCUUUCUCGAUAUCAUAUUAAUCUUU	742 nM
Ic_S2_P4E.1_K4.1_C4.1_H4.1_A4.1_[A6C]_[T7A]_F4.1_[A9G]_T4.1 (ssRNA) RNA: UUUGAUUAAUAUGAUAUCGUUCUUUCUUGUAUCAUGUUCUUUCUCGAUAUCAUAUUAAUCUUU	4.75 nM
Ic_S2_P4E.1_K4.1_C4.1_H4.1_A4.1_[A6C]_[T7A]_F4.1_[T8C]_T4.1 (ssRNA) RNA: UUUGAUUAAUAUGAUAUCGUUCUUUCUUGUAUCACAUUCUUUCUCGAUAUCAUAUUAAUCUUU	347 nM
Ic_S2_P4E.1_K4.1_C4.1_H4.1_A4.1_[A6T]_[T7G]_F4.1_[A9T]_T4.1 (ssRNA) RNA: UUUGAUUAAUAUGAUAUCGUUCUUUCUUGUAUUGUUUUCUUUCUCGAUAUCAUAUUAAUCUUU	57 nM
Ic_S2_P4E.1_K4.1_C4.1_H4.1_A4.1_[A6C]_[T7C]_F4.1_[T8G]_[A9T]_T4.1 (ssRNA) RNA: UUUGAUUAAUAUGAUAUCGUUCUUUCUUGUAUCCGUUUCUUUCUCGAUAUCAUAUUAAUCUUU	149 nM
Ic_S2_P4E.1_K4.1_C4.1_H4.1_A4.1_[A6C]_[T7C]_F4.1_[T8G]_[A9C]_T4.1 (ssRNA) RNA: UUUGAUUAAUAUGAUAUCGUUCUUUCUUGUAUCCGCUUCUUUCUCGAUAUCAUAUUAAUCUUU	800 nM
Ic_S2_P4E.1_K4.1_C4.1_H4.1_A4.1_[A6C]_[T7C]_F4.1_[A9C]_T4.1 (ssRNA) RNA: UUUGAUUAAUAUGAUAUCGUUCUUUCUUGUAUCCUCUUCUUUCUCGAUAUCAUAUUAAUCUUU	27.5 nM
